The target of assay [1] is T1, Mouse Id2: Histidine (mouse, UniProt P41136 1-134, limits assumed).
T1 construct: Fusion protein made in E. coli from vector pGW07; also called m-Id2: His; not shown: His tag
T1 sequence (looked up): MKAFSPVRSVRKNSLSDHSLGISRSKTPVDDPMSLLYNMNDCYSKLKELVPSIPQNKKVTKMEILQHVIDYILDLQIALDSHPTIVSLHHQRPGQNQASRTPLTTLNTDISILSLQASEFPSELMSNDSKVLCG
The assay can be described thus: ELISA, Ab 0.005 µg/ml. The protocol:
(§1) The rabbit monoclonal anti-human Id3 (clone #3-3) and the rabbit monoclonal anti-mouse/human Id3 (clones #6-1, 16-1, 17-3, and 42-1) produced in Example 6 were tested reactivity against the following antigens: mouse Id1:His, human Id1:His, mouse Id2:His, human Id2:His, mouse Id3:His, human Id3:His, mouse Id4:His, human Id4:His and GST.
(§2) 1. Microtiter wells (prepared in accordance with Example 6) were coated (0.1 μg/well) with mouse Id1:His, human Id1:His, human Id2:His, human Id3:His, and 1.0 μg/well with GST. [0155] 2. Antibody Diluent: 0.25% (w/v) BSA in 0.015M KPO₄ Buffer, 0.85% (w/v) NaCl, 0.1% (w/v) NaN₃, pH=7.40 [0156] 3. Rabbit monoclonal anti-human Id3 (clone #3-3) prepared in Example 7 was diluted to […] with the antibody diluent. […] 4. Rabbit monoclonal anti-mouse/human Id3 (clones #6-1, 16-1, 17-3, 42-1) prepared in Example 7 was diluted to 0.005, 0.010, 0.025, 0.05, 0.10, 0.25, and 0.50 μg/ml with the antibody diluent. […] 5. Conjugate Diluent: 50% (v/v) which consists of an aqueous solution containing Fetal Bovine Serum in 0.05 M Tris, 1% (v/v) Proclin-300, pH 7.6. [0159] 6. Conjugate: Goat anti-rabbit IgG (H+L)-HRP conjugate. [0160] 7. TMB reagent. […] 8. Stop solution (1 N HCI). Method
(§3) 1. Dispense 100 μL of antibody diluent, diluted rabbit monoclonal human Id3, and mouse/human Id3 hybridoma supernatants into appropriate wells. […] 2. Incubate at room temperature with mechanical shaking at 750 rpm for 90 minutes. [0165] 3. Remove the incubation mixture by flicking plate content into an appropriate waste container followed by rinsing the wells 5 times with distilled water. [0166] 4. Strike the wells sharply onto absorbent paper or paper towels to remove all residual water droplets. [0167] 5. Dispense 100 μL of 1:50,000 Goat Anti-Rabbit IgG-HRP Conjugate Reagent into each well. Gently mix for 5 seconds. [0168] 6. Incubate at room temperature with mechanical shaking at 750 rpm for 90 minutes. [0169] 7. Repeat procedures 3 and 4. [0170] 8. Dispense 100 μL of TMB Reagent into each well. Gently mix for 5 seconds. [0171] 9. Incubate at room temperature with mechanical shaking at 750 rpm for 20 minutes. […] 10.
(In general: In an ELISA, binding on a coated surface is turned into a signal by an enzyme label.)

Assay [2] addresses T2, Human Id2: Histidine (human, UniProt Q02363 1-134, limits assumed).
T2 construct: Fusion protein made in E. coli from vector pGW07; also called h-Id2: His; not shown: His tag
T2 sequence (looked up): T1 sequence (looked up) with T60S, V131A
The assay is described as follows: ELISA, Ab 0.005 µg/ml. Here is the method:
as §1, §2, §3

Assay [3] concerns the target T3, Mouse Id3: Histidine (mouse, UniProt P41133 1-119).
T3 construct: Fusion protein made in E. coli from vector pGW07; also called m-Id3: His; Mouse Id3 (coated wells); not shown: His tag
T3 sequence: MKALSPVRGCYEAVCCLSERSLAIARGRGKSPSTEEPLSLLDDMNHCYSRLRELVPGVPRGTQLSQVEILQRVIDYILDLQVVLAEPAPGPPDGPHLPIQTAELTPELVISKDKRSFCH
The assay is described as follows: ELISA, Ab 0.005 µg/ml. The protocol:
as §1, §2, §3

Assay [4] deals with T4, Human Id3: Histidine (human, UniProt Q02535 1-119 at identity 1.00)).
T4 construct: Fusion protein made in E. coli from vector pGW07; also called h-Id3: His; Human Id3 (coated wells); not shown: His tag
T4 chain: T3 sequence with S31G, S33A, T34A, T105A, K112N
The assay is described as follows: ELISA, Ab 0.005 µg/ml. The protocol:
as §1, §2, §3

The target in assay [5] is T5, Mouse Id1: Histidine (mouse, UniProt P20067-2 1-148, limits assumed).
T5 construct: Fusion protein made in E. coli from vector pGW07; also called m-Id1-His; not shown: His tag
T5 sequence (looked up): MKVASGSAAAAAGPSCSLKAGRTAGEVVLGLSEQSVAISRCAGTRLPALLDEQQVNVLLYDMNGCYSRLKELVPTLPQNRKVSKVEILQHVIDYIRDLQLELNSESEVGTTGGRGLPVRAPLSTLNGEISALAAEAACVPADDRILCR
The assay is described as follows: ELISA, Ab 0.005 µg/ml. The protocol: as §1, §2, §3

In assay [6] the target is T6, Human Id1: Histidine (human, UniProt P41134 1-155, limits assumed).
T6 construct: Fusion protein made in E. coli from vector pGW07; also called h-Id1: his; not shown: His tag
T6 sequence (looked up): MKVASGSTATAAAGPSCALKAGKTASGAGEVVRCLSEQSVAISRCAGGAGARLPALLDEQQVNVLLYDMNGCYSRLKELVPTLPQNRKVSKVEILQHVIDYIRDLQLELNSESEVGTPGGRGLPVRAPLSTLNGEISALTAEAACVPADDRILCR
The assay can be described thus: ELISA, Ab 0.100 µg/ml. Here is the method: as §1, §2, §3

Assay [7] deals with T2, Human Id2: Histidine. The assay can be described thus: ELISA, Ab 0.100 µg/ml. The protocol:
as §1, §2, §3

For assay [8], the target named is T3, Mouse Id3: Histidine. The assay is described as follows: ELISA, Ab 0.100 µg/ml. The protocol: as §1, §2, §3
The target in assay [9] is T4, Human Id3: Histidine. The assay is described as follows: ELISA, Ab 0.100 µg/ml. Here is the method:
as §1, §2, §3

The target of assay [10] is T7, glutathione S-transferase (GST) (UniProt P08515 1-218 = GST).
T7 construct: also called carrier protein GST
T7 sequence (P08515 whole entry): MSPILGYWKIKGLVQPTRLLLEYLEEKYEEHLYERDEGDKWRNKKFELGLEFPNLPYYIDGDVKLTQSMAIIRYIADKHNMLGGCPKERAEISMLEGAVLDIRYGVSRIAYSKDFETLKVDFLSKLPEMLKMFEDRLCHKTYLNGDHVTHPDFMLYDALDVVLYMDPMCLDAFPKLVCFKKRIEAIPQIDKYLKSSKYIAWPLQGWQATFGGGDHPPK
The assay can be described thus: ELISA, Ab 0.100 µg/ml. Here is the method: as §1, §2, §3

The target in assay [11] is T5, Mouse Id1: Histidine. The assay is described as follows: ELISA, Ab 0.100 µg/ml. Here is the method: as §1, §2, §3

Results on five molecules are retold here after patent publication US20070178531A1 (BIOCHECK, published 2007).

Positions count from the first letter of the chain named.

B1: rabbit monoclonal anti-mouse/human Id3, clone #BCH-4/#16-1 (antibody, V domains shown)
VH: QSVEESGGRLVTPGTPLTLTCTASGFSLSSYYIHWVRQAPGKALEWIGYISDGGTTYYASWAKGRFTISKTSSTTVDLKMTSLTTEDTATYFCARQGFNIWGPGTLVTVSL
VL: AVLTQTPSPVSAAVGGTVTISCQSSQSVYNNNWLSWFQQKSGQPPKLLIYETSKLESGVPSRFKGSGSGTQFTLTIIDVQCDDAATYYCLGGYWTTSDNNIFGGGTEVVVK
notes: Rabbit IgG from a rabbit hybridoma; also called m/h Id3 MoAb 16-1
Turning to B1, the A450 in assay [1] stood at 0.045 A450; in assay [2], 0.046 A450; in [3] it was 0.24 A450; in [4], 0.228 A450; in assay [5], 0.046 A450; in [6], 0.047 A450. Further, the A450 in assay [7] stood at 0.048 A450; in assay [8], 2.28 A450; in assay [9] it was 1.99 A450; in assay [10] it was 0.049 A450; in [11] it was 0.047 A450.

B2: rabbit monoclonal anti-mouse/human Id3, clone #BCH-4/#17-3 (antibody, V domains shown)
VH: B1 VH with S30N, Y31V, A43G, G54D, T56A, Y57R, S60T, D77N
VL: B1 VL with T19S, Y29W, S41P, I77S, I101V
notes: Rabbit IgG from a rabbit hybridoma; also called m/h Id3 MoAb 17-3; BCH-3/#17-3
Regarding B2, the A450 in [1] came to 0.052 A450; in [2] it was 0.045 A450; in assay [3], 0.39 A450; in [4], 0.33 A450; in assay [5], 0.048 A450; in [6], 0.048 A450. The A450 in assay [7] turned out to be 0.048 A450; in [8] it was 2.91 A450; in assay [9], 2.6 A450; in assay [10], 0.052 A450; in assay [11], 0.051 A450.

B3: rabbit monoclonal anti-mouse/human Id3, clone #BCH-4/#6-1 (antibody, V domains shown)
VH: B1 VH with S30N, Y31V, A43G, G54D, T56A, Y57R, S60T, D77N
VL: B1 VL with T19S, Y29W, S41P, I77S, I101V
notes: Rabbit IgG from a rabbit hybridoma; also called m/h Id3 MoAb 6-1
On to B3, for which the A450 was 0.046 A450 in assay [1]; 0.045 A450 in assay [2]; 0.312 A450 in [3]; 0.275 A450 in assay [4]; 0.047 A450 in assay [5]; 0.049 A450 in assay [6]. Also, the A450 is 0.049 A450 in assay [7]; 2.56 A450 in assay [8]; 2.36 A450 in [9]; 0.047 A450 in [10]; 0.049 A450 in [11].

B4: rabbit monoclonal anti-mouse/human Id3, clone #BCH-4/#42-1 (antibody, V domains shown)
VH: B1 VH
VL: B1 VL with T95S
notes: Rabbit IgG from a rabbit hybridoma; also called m/h Id3 MoAb 42-1
Turning to B4, the A450 was 0.05 A450 in assay [1]; 0.043 A450 in [2]; 0.437 A450 in [3]; 0.382 A450 in assay [4]; 0.045 A450 in [5]; 0.047 A450 in assay [6]. Also, the A450 in assay [7] is 0.046 A450; in assay [8] it was 2.87 A450; in assay [9] it was 2.6 A450; in assay [10], 0.049 A450; in assay [11], 0.049 A450.

B5: rabbit monoclonal anti-human Id3, clone #BCH-4/#3-3 (antibody, V domains shown)
VH: QSVEESGGRLVTPGTPLTLTCTVSGIDLSSYAMSWVRQAPGKGLEWIGVIFPSNNVYYASWAKGRFTISKTSTTVDLKITSPTTEDTATYFCASMGAFDSWGPGTLVTVSS
VL: QVLTQTPSPVSAAVGGTVTINCQASQSIYNDNDLAWFQQKPGQPPKLLIYDASTLTSGVPSRFKGSGSGTQFTLTISDLDCDDAATYYCAARYSGNIYGFGGGTEVVVK
notes: Rabbit IgG from a rabbit hybridoma; also called h Id3 MoAb 3-3
B5: the A450 was determined as 0.048 A450 in assay [1]; 0.044 A450 in [2]; 0.044 A450 in assay [5]; 0.047 A450 in assay [6]; 0.048 A450 in assay [7]; 0.048 A450 in [10]. Besides, the A450 in assay [11] came to 0.047 A450.
